Assay: yeast display, Sf9 membrane polyspecificity reagent, FACS + sequencing; frameworks hold sequencing errors
Outline: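 Genes from sorted yeast were amplified by colony PCR, read by MiSeq 2 × 250 sequencing and filtered on CDR length. These cells carried a synthetic nanobody library in Saccharomyces cerevisiae BJ5465 and were sorted by FACS into low and high (top ~1%) gates on anti-HA and streptavidin fluorescence. Polyreactivity is labelled according to the gate of origin.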

Sequence | polyreactivity (PSR sort gate)
QVQLVESGGGLVQAGGSLRLSCAASGSIFSYYAMGWYRPAPGKERELVAAISKRGPSTYYADSVKGRFTISRDNAKNSVYLLMNSLKPEDTAVYYCAAKYSRRSSVSYYYWGQGTQVTVSS | high polyreactivity
QVQLVESGGGLVQAGGSLRLSCAASGIIFTNYSMGWYRQAPGKERELVAAISKGAGRTYYADSVKGRFTISRDNAKNTVYLQMNSLKPEDTAVYYCNKAKRSGGYPGVFSYDYWGQGTQVTVSS | high polyreactivity
QVQLVESGGGLVQAGGSLRLSCAASGSIFWWNAMGWYRQAPGKERELVAGITKIGSSTYYADSVKGRFTISRDNAKNTVYLQMNSLKPEDTAVYYCNAYGPNIYSSRYDYWGQGTQVTVSS | low polyreactivity
QVQLVETGGGLVQAGGSLRLSSAASGRIFRNYTMGWYRQAPGKERELVAAISSSGGRTYYADSVKGRFTISRDNEKNTVYLQMNSLKPEDTAVYYCNTDGPTWYPTYDYWGQGTQVTVSS | high polyreactivity
QVQLVESGGGLVQAGGSLRLSCAASGSTFHVNAMGWYRQAPGKEREFVAAISWRTGSTYYADSVKGRFTISRDNAKNTVYLQRHSLKPEDTAVYYCAAKRSYSNYDYWGQGTQVTVSS | high polyreactivity
QVQLVESGGGLVQAVGSLRLSCAASGRIFRVNAMGWYRQAPGKERELVASITSGGSTHYADSVKGRFTISRDNAKNTVYLQMNSLKPEDTAVYYCNVAYGLLWISPGGDYWGQGTQVTVSS | low polyreactivity
QVQLVESGGGLVQAGGSLRLSCAASGFTFFYNDMGSYRQAPGKERELVAAINLSGGTTYYADSVKGRFTISRDNAKNTVYLQMNSLIPEDTAVYYCNRASSTPWYRWRYKPFDYWGQGTQVTVSS | high polyreactivity
QVQLVESAGGLVQAGGSLRLSCAASGRIYGIYAMGWYRQAPGKERELVASITDGTITNYADSVKGRFTISRDNAKNTVYLQKNSLKPEDTAVYYCAAGTQAHAYVVRPIEMDYWGQGTQVTVSS | low polyreactivity
QVQLVESGRGLFQAGGSLRLSCAASGFTGSYAMGWYRQAPGKVREFVAAISYRGSSTYYADSVKGRFTISRDNAKNTVYLQMNSLKPEDTAVYYCNSVHYVLYGDYDYWGQGTQVTVSS | high polyreactivity
QVQLVESGGGLVQAGGSLRLSCAASGYTFRGYAMGWYRQAPGKEREFVAAMNWSDGSTYYADSVKGRFTISRDNPKNTVYLQMNSLKPEDTAVYYCNADQYYRVPDNYWGQGTQVTVSS | low polyreactivity
QVQLVESGGGLVQAGGSLRLSCAASGSTLKYYTMGWYRQAPGKERELVAAISWSGGRTYYADSVKGRFTISRDNAKNTVYLQMNSLKPEDTAVYYCNARRTFPRYDRKYESWGQGTQVTVSS | high polyreactivity
QVQLVDSGGGLVQAGGSLRLSCAASGLIFEVYAMGWYRQAQGKERELVAAISWRGGSTDYADSVKGRFTISRDNAKNTVYLQMNSLKPEDTAFYYCAKGYRGRTTAGNLWEFDYWGQGTQVTVSS | high polyreactivity
QVQLVESGGGLVQAGGSLRLSCAASGGTFVGNAMGWYRQAPGKERELVAAISTNSGSTYYADSVKGRFTISRDNAKNTVYLQMNSLKPEDTAVYYCATRNSSKRRGYYYWGQGTQVTVSS | high polyreactivity
QVQLVESGGGLVQAGGSLRISCAASGITFPWYAMGWYRQAPGKERELVAAINRAGNTNYADSVKGRFTISRDNAKNTVYLQMNSLKPEDTSVYYCAARWRYKYTLGYWGQGTQVTVSS | high polyreactivity
QVQLVESGGGIVQAGGSLRLSCAASGRIFWDYAMGWYRQAPGKERELVDVITLSGDSTYYADSVKGRFTISRDNAKNTVYLQMNSLKPEDTAVYYCAAARAIRQFWYVATFEYWGQGTQVTVSS | low polyreactivity
QVQLVESGGGLVQEGGSLGLSCAASGRIFIPYAMGWYRQETGKEREFVATIRWRGGRTYYADSVKGRFTISRDNAKNTVYLQLYSLKPEDTAVYYCAARSNALFRFDYWGQGTQVSVSS | high polyreactivity

Sequence | polyreactivity (PSR sort gate)
QVQLVESGGGLVQAGGSLRLSCAASGSTFICKAMGWYRQAPGKERELVAAIDYRGGNTYYADSVKGRFTISRDYAKNSVYLHMNSLKPEHTAVYYCAARVVGYEYFYDYYYWGQGTQVTLSS | low polyreactivity
QVHLVESGGGLVQAGGSLRLSCAASGSIFWANAMGWYSQAPGKERELVAAINFRATITYYADSVKGRFTISRDIAKNTFYLQMISLKPEDTAVYYCAGDSYECWYDYWGQGTEVTVSS | high polyreactivity
QVQLVESGGGLVQAGGSLRLSCAASGRTFIVYAMGWYRQAPGKERELVAAISGRGGGNTYYADSVKGSFTISRDNAKNTVYLQMNSLKPEDTAVYYCAADTYSWYSYRDYYYWGQGTQVTVSS | low polyreactivity
QVQLVESGGGLVQAGGSLRLSCAASGGNFYYYVMGWYRQAPGKERELVAAITWSGGSTSYADSVKGRFTISRDNAKNTVYLQMNSLKPEDTAVYYCNADSTTQDYDYWGQGTQVSVSS | low polyreactivity
QVQLVESGGGLVQAGGSLRLSCAASGSIFVSYAMGWYRQAPGKERELVAAITRGGSTNYADSVKGRFTISRDNAKNTVYLQMNSLKPEDTAVYYCAAAYRRGGPPLDYWGQGTQVTVSS | low polyreactivity
QVQLVESGGGLVQAGGSLRLSCAASGSIFDTYAMGWYRQAPGKERELVAAITRRAGSTYYADSVKGRFTISRDNAKNTVYLQMNSLKPEDTPVYYGAAGYDRYPGVIDEYWGQGTEVTVSS | low polyreactivity
QVQLVESGGGLVQAGGSLRLSCAASGIIIQRNAMGWYRQAPGKERELVAAISIGGGSTYADSVKGRFTISRDNAMNTVYLQMNSLKPEDTAVYYCAADYSGASVLMDYWGQGTQVTVSS | low polyreactivity
QVQLVESGGGLVQAGGSLRLSCAASGSTFGVNAMGWYRQAPGKERELVAAISSSGSSTYADSVKGRFTISRDNAKNTVYLQMNSLKPEDTAVYYCNKTTLLTVEYDYWGQGTQVTVSS | low polyreactivity
QVQLVDSRGGLVQAGRSLRLSCAASGIIFFAYAMGWYRQAPGKERELVAAISSSGGRTYYADSVKGRFTISRDKAKNTVYLQMNSLKPEDTAVYYCNARWHGSFDYWGQGTQVTVSS | low polyreactivity
QVQLVESGGGLVQAGGSLRLSCAASGIIFGRYAMGWYRQSPGKERELVAAISSRGGSTYYADSVKGRFTISRDNAKNTVYLQMNSLKPEDTAVYYCAATWCFLRGSTKYYYWGQGTQVTVSS | high polyreactivity
QVQLVESGRGLVQAGGSLRLSCAASGRIFVYYAMGWYRQAPGKERELVATISSGGSTYYADSVKGRFTISRDNAKNTVYLQMNSLKPEDTAVYYCAADNVNRYLAYYYKGDYWGQGTQVTVSS | low polyreactivity
QVQLVESGVGLVQAGGSLRLICAASGFILGQNAMGWYRQAPGKEREFVADISWSGDSTYYADSVKGRFTISRDNAKNTVYFQMNSLKPEDTAVYYCAADPYYNWGYYYWGQGTQVTVSS | low polyreactivity
QVQLVESGGGLVQEGGSLRLSCAASGSTFDIYAMGWYRQAPGKERELVAAIRGRGGSTYYADSVKGRFTISRDNGKNTVYLQMNSLKPEDTAVYYCAADSYATRYYYWGQGTQVTVSS | high polyreactivity
QVQLVESGGGLVQAGGSLRLSCAASGSTFIVYAMGWYRQAPGKERELVAAIRGRGGSTYYADSVKGRFTISRDNAKNTVYLQMNSLKPEDTAVYYCAARGISPQEMYYWGQGTQVTVSS | high polyreactivity
QVQLVESGGCLVQAGGSRSLSCAASGSIFYRNAMGWYRQAPGKERELVAAIRGSDGSTYYADSVKGRFTISRDNGKNTVYLQMNSLKPEDTAVYSCNADTPTWPLDYWGQGTQVTVSS | low polyreactivity
QVQLVESGGGLVQAGGSLRLSFAASGRIFAYYAMGCYRQAPGKERELVASISRSGGRTYYADSVKGRFTISRDNAKNTVYLQMNSLKPEDTAVYYFNRAVWFKSTVDYWGQGTQVTVSS | high polyreactivity

— the nanobody polyreactivity screen of Harvey et al. (2022)
